Self-cleavage data for 167 variants are collected here from the RNAGym collection of RNA variant scans (doi:10.1093/nar/gkz1192).

B1: CPEB3 Ribozyme (parent)
chain: UAACAGGGGGCCACAGCAGAAGCGUUCACGUCGCAGCCCCUGUCAGAUUCUGGUGAAUCUGCGAAUUCUGCUGUAUAUCUC

In this data set the parent is B1. Briefly: self-cleavage, relative activity (ratio to wild type); higher = more cleavage; in vitro, sequencing. The gist of the method: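 Libraries of CPEB3 self-cleaving ribozyme mutants came from rounds of error-prone PCR and carried barcodes, which DNA sequencing matched to variants. In vitro transcription used T7 RNA polymerase at 37°C for 5 hours, with a further 15 min in DNase I before EDTA stopped the reaction; the ribozymes cleaved during both steps. The RNA was reverse transcribed with template switching and sequenced on Illumina. Relative activity is the cleaved/total read fraction of a variant divided by that of the unmutated ribozyme, averaged over three batches with at least 5 reads.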
On to U1A U58C, for which the self-cleavage worked out at 0.66. For the variant A45C U60A, the self-cleavage amounted to 0.33. Regarding A20G U80A, the self-cleavage worked out at 1.03. In the case of A15C A28U it was 0.8; in that of C40U U51C, 0.65. In the case of G7A U69A it was 0.39; in that of G53C A65G, 0.67; in that of U31A C50U, 0.41. In the case of U31C U78G it was 0.84; in that of U26C U43A, 0.26; in that of A28U U60C, 0.38. Turning to C23U U72A, the self-cleavage worked out at 0.22. Consider A15C U49C, for which the self-cleavage was found to be 0.35.

Turning to A35C U76G, the self-cleavage was determined as 0.77. In the case of U67A A77U it was 0.39; in that of A35G G52C, 1.27. In the case of A20C C39G, the self-cleavage amounted to 0.07.

Regarding C50A U72C, the self-cleavage was determined as 0.86.

Consider G24U U51A, for which the self-cleavage stood at 0.1. In the case of A35C U48A it was 0.45.

Regarding U43C U80A, the self-cleavage was determined as 0.73. In the case of U26C U69A it was 0.26; in that of U51G A56U, 0.52; in that of G8A A20G, 0.25. In the case of U54C C68U it was 1.09. In the case of U26C G33C it was 0.13.

As for U60G U74A, the self-cleavage came to 0.82.

Consider U54A A77C, for which the self-cleavage came to 1.12. In the case of U54A A77U it was 1.23; in that of G16A C39U, 0.15; in that of U26C U67C, 0.22. With G9U C40U, the self-cleavage came out at 0.19. C12A G19A: the self-cleavage was found to be 0.43.

For the variant C34A U80C, the self-cleavage turned out to be 0.34.

In the case of A15C U76A, the self-cleavage came to 1.19.

Regarding G10A U72G, the self-cleavage is 0.24.

In the case of U49A A65C, the self-cleavage was 0.13. In the case of A47U G52A it was 0.86; in that of C4U G30A, 0.22; in that of A56G U60C, 0.42. In the case of G24A C71U it was 0.36; in that of U31A G61A, 0.37. In the case of C4G U67C it was 0.29. Regarding C37U U43G, the self-cleavage came to 0.19. In the case of C44A A75G it was 0.32; in that of G24A G55A, 0.1; in that of U1C C23G, 0.42. As to C23A A64G, the self-cleavage turned out to be 0.53. For G42A C79A, the self-cleavage came to 0.33. C11G U74C: the self-cleavage is 0.91.

Turning to U31A U60C, the self-cleavage amounted to 0.25.

Turning to C17U U69C, the self-cleavage was 0.21. In the case of C38A A64C it was 0.15; in that of C44G G63A, 0.65. In the case of G8A G42A it was 0.1.

For the variant U72A U78C, the self-cleavage amounted to 0.8.

Consider U25C U48A, for which the self-cleavage amounted to 0.31. In the case of C34U C71A, the self-cleavage was found to be 0.13. In the case of G6C A18U it was 0.07.

For the variant U43C U78C, the self-cleavage was 0.49. In the case of A2C A64G it was 0.74.

Regarding A20C U25C, the self-cleavage worked out at 0.28. In the case of A21G G55A it was 0.42; in that of C40A A65G, 0.31. In the case of C17U U58G it was 0.15; in that of U43G A57G, 0.21. Regarding G55A U66C, the self-cleavage came out at 0.22. In the case of C29U C39G it was 0.22.

As for G53A U67C, the self-cleavage worked out at 0.41.

Turning to A18C A35U, the self-cleavage stood at 0.16. In the case of A18C A35G it was 1.03. In the case of A13G U74G it was 1.37; in that of U49C U54C, 0.38. In the case of C40G U41C it was 0.32; in that of U49C G61C, 0.33; in that of U48C U80C, 0.68. As for U31C U58G, the self-cleavage came to 0.39.

Take G6U A77U: the self-cleavage turned out to be 0.16.

For the variant G8A U48C, the self-cleavage is 0.15.

U31A C71G: the self-cleavage was 0.19.

In the case of C4A A21G, the self-cleavage is 0.92. In the case of G22U U26C it was 0.11; in that of U43A U69C, 0.72; in that of C32U U78C, 0.25. In the case of C62A U66C it was 0.25; in that of G30A A45C, 0.17; in that of A2C U67C, 0.36. In the case of C79A U80C it was 1.23. A35G U76A: the self-cleavage was determined as 1.33.

Take A28G C81A: the self-cleavage is 1. In the case of U43G U72G it was 0.17; in that of A28G G61C, 0.15; in that of A45U U72G, 0.61. Consider G33C, for which the self-cleavage turned out to be 0.23. In the case of G33A U51G it was 0.19. Take U48C G52U: the self-cleavage was found to be 0.84. Regarding A15U G70C, the self-cleavage was determined as 0.17.

For G6A A56G, the self-cleavage worked out at 0.28. In the case of G24A U51A it was 0.15; in that of C39A U60G, 0.09; in that of C39A U60A, 0.18. In the case of A3U A18U it was 0.56. In the case of G46A U60C it was 0.14; in that of A5G A56G, 0.39; in that of A75G C81U, 1.18. Take U31C G63U: the self-cleavage is 0.8. On to G53C A75G, for which the self-cleavage stood at 1.16.

As for G63A U66A, the self-cleavage worked out at 0.4. Consider A35G U58A, for which the self-cleavage worked out at 1.07. In the case of A18G C59U it was 0.43; in that of U25A G42U, 0.28; in that of U31C C34A, 0.15. In the case of A20U A56U it was 0.25; in that of U43C A56C, 0.18. In the case of A21U U25C it was 0.29; in that of A15G C68A, 0.2; in that of A56U A57G, 0.47.

A18C U54A: the self-cleavage came out at 0.37. On to U25G G70C, for which the self-cleavage is 0.33. As to A35C A47G, the self-cleavage came out at 0.81.

Regarding C17U C40U, the self-cleavage came out at 0.21. In the case of U43A A45C it was 0.39. In the case of C39A U41A it was 0.27; in that of G6A G24A, 0.34. In the case of U1C C34U it was 0.24; in that of A13G A57U, 0.45; in that of U31C C37U, 0.46. On to U67C U80A, for which the self-cleavage was found to be 0.32. U43A A47U: the self-cleavage was 0.63. For the variant A20G C81G, the self-cleavage turned out to be 0.88. Take G70A U78G: the self-cleavage was 0.46. As to A47G G61A, the self-cleavage is 0.61. In the case of A20G U31A it was 0.37. Turning to A45G U54C, the self-cleavage was determined as 0.88.

As to C23G U48C, the self-cleavage was 0.29. Take A3G C23A: the self-cleavage worked out at 0.22.

Turning to A35C, the self-cleavage was found to be 0.85.

Regarding U67A C81G, the self-cleavage was 0.92.

On to G16U A45U, for which the self-cleavage was determined as 0.21. In the case of A64C U80C it was 0.38; in that of G8A U69C, 0.19. In the case of A20C A56G it was 0.27; in that of C17A A57G, 0.34; in that of C4U, 1.17.

Consider U51A U54A, for which the self-cleavage stood at 1.04.

Turning to G36A U78C, the self-cleavage is 0.23. In the case of A2U A21G, the self-cleavage turned out to be 0.56. For A35U U78C, the self-cleavage was 0.52. In the case of U26C U58G it was 0.28. In the case of A21U G30A it was 0.1; in that of C4A A45U, 1.16.

Consider G19A, for which the self-cleavage turned out to be 0.29. In the case of A20G G46C it was 0.11; in that of C59U U69C, 0.48; in that of U25C A75C, 0.35.

Take A21G A77G: the self-cleavage was 0.66. In the case of A5U A15U it was 1.1. In the case of A5U A15G it was 0.93; in that of C62G C79A, 0.24; in that of C11U A56U, 0.33.

For the variant C4A C79G, the self-cleavage came out at 1.25.

For A57U A77U, the self-cleavage worked out at 1.01. In the case of C44U U48C it was 0.44; in that of A5G U49C, 0.31; in that of A21U G52A, 0.33. In the case of A3C U69A it was 1.08; in that of U74C U78C, 1.3.
